Measured values taken from article PMC5112516.
Substitutions are numbered along the chain they refer to.

What was measured:
Experiment in all cases: tryptophan fluorescence quenching
Details in all cases: Fluorescence and EMSA: PBS (130 mM NaCl, 2.7 mM KCl, 10 mM Na2HPO4, 2 mM KH2PO4, pH 7.4), 25 C; ELISA: 10 mM KH2PO4, 50 mM KCl, pH 7, 0.1% Tween 20
[1] = tested on: Sis7b
[2] = tested on: Mse7
[3] = target: T1, Aho7a (Acidianus hospitalis) (UniProt F4B991)
T1 sequence: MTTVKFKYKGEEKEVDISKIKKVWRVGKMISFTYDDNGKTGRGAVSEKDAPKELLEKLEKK

[4] = target: T2, Aho7c (Acidianus hospitalis) (UniProt F4B8X5)
T2 sequence: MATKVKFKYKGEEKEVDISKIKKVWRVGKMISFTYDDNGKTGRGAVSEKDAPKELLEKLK

[5] = target: T3, Sac7e (Sulfolobus acidocaldarius) (UniProt P13125)
T3 sequence: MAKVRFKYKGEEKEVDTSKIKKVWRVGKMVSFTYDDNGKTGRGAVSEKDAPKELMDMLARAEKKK

[6] = target: T4, Aho7b (Acidianus hospitalis) (UniProt F4B9I5)
T4 sequence: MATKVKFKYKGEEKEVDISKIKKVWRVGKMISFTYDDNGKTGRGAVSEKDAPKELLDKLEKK

[7] = target: T5, Sac7d (Sulfolobus acidocaldarius) (UniProt P13123)
T5 sequence: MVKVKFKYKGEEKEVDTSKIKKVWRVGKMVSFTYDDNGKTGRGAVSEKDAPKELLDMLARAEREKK

[8] = target: T6, Ssh7b (Sulfolobus shibatae) (UniProt O59632)
T6 sequence: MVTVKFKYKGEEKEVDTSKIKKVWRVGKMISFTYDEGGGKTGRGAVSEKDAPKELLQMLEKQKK

[9] = tested on: Sis7a
[10] = tested on: Mcu7
[11] = tested on: Sto7
[12] = target: T7, Sso7d (Sulfolobus solfataricus) (UniProt P39476)
T7 sequence: T6 sequence with V2A, T17I

[13] = target: T8, Ssh7a (Sulfolobus shibatae) (UniProt P61990)
T8 sequence: T6 sequence with V2A, E14Q, T17I

[14] = target: T5, Sac7d (Sulfolobus acidocaldarius); remark: listed apart in the source

With calf-thymus DNA (ct-DNA), sonicated the Kd [1] was 16 µM, the Kd [2] was 15 µM and the Kd [3] was 16 µM. It also gave a Kd [4] of 16 µM, a Kd [5] of 11 µM and a Kd [6] of 13 µM. The Kd [7] was 13 µM, the Kd [8] was 22 µM and the Kd [9] was 15 µM. The Kd [10] was 16 µM, the Kd [11] was 14 µM and the Kd [12] was 17 µM. For the same substance, the Kd [13] was 18 µM and the Kd [14] was 0.203 µM.
